The record followed here is article PMC5670179, “Folding of a bacterial integral outer membrane protein is initiated in the periplasm” (Nature Communications, 2017).

Data set [1] concerns the target His10-UpaGΔ2(Y1735am) (E. coli O6:H1 strain CFT073). In words: SDS-PAGE of unheated (25 °C) against heated (99 °C) samples after Ni-NTA purification; cells radiolabelled, UV irradiated and PK treated; membranes solubilised in 2% DDM, Ni-NTA in 50 mM NaH2PO4 pH 8, 500 mM NaCl, 0.05% DDM; eluate kept at 25 or 99 °C in SDS sample buffer for 5 min.
Data set [2] deals with the molecule itself. In words: SDS- and heat-resistant oligomers on SDS-PAGE after pulse-chase labelling and immunoprecipitation; cells grown in M9 minimal medium at 37 °C, pTrc99a derivatives; TCA precipitation, immunoprecipitation with anti-HA or anti-UpaG antiserum, samples heated to 99 °C for 5 min, 8-16% Tris-glycine gels.

In the case of “His10-UpaGΔ2(Y1735am) (from UniProt A0A0H2VCA1 1609-1778) (domain or fragment)”, in data set [1], the stoichiometry N (in general, the number of molecules, sites or subunits per partner or assembly) worked out at 3.

B1: HA-UpaGΔ2 (domain or fragment)
chain: AGVNATDAVNVSQLKSSEAGGVRYDTKADGSIDYSNITLGGGNSGTTRISNVSAGVNNNDAVNYAQLKQSVQETKQYTDQRMVEMDNKLSKTESKLSGGIASAMAMTGLPQAYTPGASMASIGGGTYNGESAVALGVSMVSANGRWVYKLQGSTNSQGEYSAALGAGIQW
notes: UpaG, trimeric autotransporter adhesin of uropathogenic E. coli O6:H1 strain CFT073; the C-terminal 170 residues (passenger-domain fragment 1609-1689 and beta-domain segment 1689-1778) of the 1778 residue full-length protein; Made with the native UpaG signal peptide (residues 1-53) before the HA tag; the signal peptide is meant to be cleaved on export; Two glycines were inserted between signal …
As for B1, the “stoichiometry N” value in data set [2] came out at 3.
